Measurements from patent publication US20240270821A1, “GIP/GLP1/GCG TRI-RECEPTOR AGONISTS AND USES THEREOF” (priority 2023, published 2024).
Substitutions are numbered along the chain they refer to.

B1: Example 1190 (peptide)
chain: YXQGTXTSDXXIXLDXKAQXEFIEXLIEGGPPSXEPPPEGE
modifications: non-natural residues, acylated Lys, C-terminal amide; synthetic construct; SITE 2: note = 2-Aminoisobutyric Acid; SITE 6: note = alpha-methyl-2-fluoro-L-phenylalanine; SITE 10: note = 3-(4-Pyridyl)-L-alanine; SITE 11: note = alpha-methyl-L-serine; SITE 13: note = alpha-methyl-leucine; SITE 16: note = L-ornithine; SITE 17: note = Lysine is chemically mo
B2: Example 1211 (peptide)
chain: YXQGTXTSDXXIXLDXXAQXEFIEXLIEGGPSSGAPPPSGS
modifications: synthetic construct; SITE 2: note = 2-Aminoisobutyric Acid; SITE 6: note = alpha-methyl-2-fluoro-L-phenylalanine; SITE 10: note = 3-(4-Pyridyl)-L-alanine; SITE 11: note = alpha-methyl-L-serine; SITE 13: note = alpha-methyl-leucine; SITE 16: note = L-ornithine; SITE 17: note = Ornithine is chemically
B3: Example 1198 (peptide)
chain: YXQGTXTSDXXIXLDXKAQXEFIEXLIEGGPPSXXPPPSGSE
modifications: non-natural residues; lysine acylated AEEA-γGlu-C18 diacid; C-terminal amide; synthetic construct; SITE 2: note = 2-Aminoisobutyric Acid; SITE 6: note = alpha-methyl-2-fluoro-L-phenylalanine; SITE 10: note = 3-(4-Pyridyl)-L-alanine; SITE 11: note = alpha-methyl-L-serine; SITE 13: note = alpha-methyl-leucine; SITE 16: note = L-ornithine; SITE 17: note = Lysine is chemically mo
B4: Example 1212 (peptide)
chain: B3 chain with K17X, P32S, X34G, X35A
modifications: synthetic construct; SITE 2: note = 2-Aminoisobutyric Acid; SITE 6: note = alpha-methyl-2-fluoro-L-phenylalanine; SITE 10: note = 3-(4-Pyridyl)-L-alanine; SITE 11: note = alpha-methyl-L-serine; SITE 13: note = alpha-methyl-leucine; SITE 16: note = L-ornithine; SITE 17: note = Ornithine is chemically
B5: Example 1200 (peptide)
chain: B3 chain with X35E
modifications: non-natural residues, acylated Lys (AEEA-γGlu-C18 diacid), C-terminal amide; synthetic construct; SITE 2: note = 2-Aminoisobutyric Acid; SITE 6: note = alpha-methyl-2-fluoro-L-phenylalanine; SITE 10: note = 3-(4-Pyridyl)-L-alanine; SITE 11: note = alpha-methyl-L-serine; SITE 13: note = alpha-methyl-leucine; SITE 16: note = L-ornithine; SITE 17: note = Lysine is chemically mo
B6: Example 1233 (peptide)
chain: B3 chain with K17Q, P32S, X34G, X35A
modifications: not fully specified; synthetic construct; SITE 2: note = 2-Aminoisobutyric Acid; SITE 6: note = alpha-methyl-2-fluoro-L-phenylalanine; SITE 10: note = 3-(4-Pyridyl)-L-alanine; SITE 11: note = alpha-methyl-L-serine; SITE 13: note = alpha-methyl-leucine; SITE 16: note = L-ornithine; SITE 20: note = 3-(4-Pyridyl)-L-alanine
B7: Example 1209 (peptide)
chain: YXQGTXTSDXSIXLDXXAQXXFIEXLIEGGPSSGEPPPETE
modifications: synthetic construct; SITE 2: note = 2-Aminoisobutyric Acid; SITE 6: note = alpha-methyl-2-fluoro-L-phenylalanine; SITE 10: note = 3-(4-Pyridyl)-L-alanine; SITE 13: note = alpha-methyl-leucine; SITE 16: note = L-ornithine; SITE 17: note = Ornithine is chemically modified through conjugation of the ep
B8: Example 1236 (peptide)
chain: YXQGTXTSDXSIXLDXKAAXAFIEXLLEGGPSSGEPPPS
modifications: synthetic construct; SITE 2: note = 2-Aminoisobutyric Acid; SITE 6: note = alpha-methyl-2-fluoro-L-phenylalanine; SITE 10: note = 3-(4-Pyridyl)-L-alanine; SITE 13: note = alpha-methyl-leucine; SITE 16: note = L-ornithine; SITE 17: note = Lysine is chemically modified through conjugation of the epsil
B9: Example 1204 (peptide)
chain: B2 chain with G4A, X17K, I27V
modifications: synthetic construct; SITE 2: note = 2-Aminoisobutyric Acid; SITE 4: note = D-amino acid; SITE 6: note = alpha-methyl-2-fluoro-L-phenylalanine; SITE 10: note = 3-(4-Pyridyl)-L-alanine; SITE 11: note = alpha-methyl-L-serine; SITE 13: note = alpha-methyl-leucine; SITE 16: note = L-ornithine; SITE 17: n
B10: Example 1210 (peptide)
chain: B2 chain with I27V
modifications: synthetic construct; SITE 2: note = 2-Aminoisobutyric Acid; SITE 6: note = alpha-methyl-2-fluoro-L-phenylalanine; SITE 10: note = 3-(4-Pyridyl)-L-alanine; SITE 11: note = alpha-methyl-L-serine; SITE 13: note = alpha-methyl-leucine; SITE 16: note = L-ornithine; SITE 17: note = Ornithine is chemically
B11: Example 1187 (peptide)
chain: YXQGTFTSDXXQXLDXKAQXQFIEXLIEXGPSSGAPPPSGGGE
modifications: not fully specified; acylated lysine γGlu-C18 diacid; non-natural residues; C-terminal amide; synthetic construct; SITE 2: note = 2-Aminoisobutyric Acid; SITE 10: note = 3-(4-Pyridyl)-L-alanine; SITE 11: note = alpha-methyl-L-serine; SITE 13: note = alpha-methyl-leucine; SITE 16: note = L-ornithine; SITE 17: note = Lysine is chemically modified through conjugation of the epsilon-amino group
B12: Example 1188 (peptide)
chain: B11 chain with E24Q, X29G, A35E
modifications: not fully specified; non-natural residues, lipidated Lys, C-terminal amide; synthetic construct; SITE 2: note = 2-Aminoisobutyric Acid; SITE 10: note = 3-(4-Pyridyl)-L-alanine; SITE 11: note = alpha-methyl-L-serine; SITE 13: note = alpha-methyl-leucine; SITE 16: note = L-ornithine; SITE 17: note = Lysine is chemically modified through conjugation of the epsilon-amino group
B13: Example 1213 (peptide)
chain: B11 chain with F6X, Q12I, K17X, Q21E, X29G
modifications: synthetic construct; SITE 2: note = 2-Aminoisobutyric Acid; SITE 6: note = alpha-methyl-2-fluoro-L-phenylalanine; SITE 10: note = 3-(4-Pyridyl)-L-alanine; SITE 11: note = alpha-methyl-L-serine; SITE 13: note = alpha-methyl-leucine; SITE 16: note = L-ornithine; SITE 17: note = Ornithine is chemically
B14: Example 1234 (peptide)
chain: B11 chain with F6X, Q12I, K17Q, Q21E, X29G
modifications: not fully specified; no fatty acid conjugated; synthetic construct; SITE 2: note = 2-Aminoisobutyric Acid; SITE 6: note = alpha-methyl-2-fluoro-L-phenylalanine; SITE 10: note = …; SITE 11: note = alpha-methyl-L-serine; SITE 13: note = alpha-methyl-leucine; SITE 16: note = L-ornithine; SITE 20: note = 3-(4-Pyridyl)-L-alanine

Molecular target: hGLP-1R (Homo sapiens, UniProt P43220)
Sequence (P43220 24-463): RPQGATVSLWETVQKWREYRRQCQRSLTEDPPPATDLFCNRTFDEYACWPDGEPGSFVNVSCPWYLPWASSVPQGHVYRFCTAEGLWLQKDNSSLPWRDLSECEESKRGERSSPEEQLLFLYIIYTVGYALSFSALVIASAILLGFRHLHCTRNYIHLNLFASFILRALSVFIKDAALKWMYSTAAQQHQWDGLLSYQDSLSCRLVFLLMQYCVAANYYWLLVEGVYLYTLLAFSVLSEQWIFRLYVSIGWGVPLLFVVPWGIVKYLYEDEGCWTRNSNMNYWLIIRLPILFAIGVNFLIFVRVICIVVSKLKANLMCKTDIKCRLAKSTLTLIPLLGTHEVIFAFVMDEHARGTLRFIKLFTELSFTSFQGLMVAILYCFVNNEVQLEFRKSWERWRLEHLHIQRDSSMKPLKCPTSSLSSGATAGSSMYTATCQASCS
Test: cell-based or functional assay

In order of rising Relative cAMP EC50:
1. B2  0.276 nM
2. B8  0.304 nM
3. B9  0.338 nM
4. B4  0.357 nM
5. B10  0.375 nM
6. B7  0.41 nM
7. B13  0.423 nM
8. B3  0.475 nM
9. B5  0.727 nM
10. B1  0.765 nM
11. B12  1.01 nM
12. B11  1.06 nM
13. B6  1.09 nM
14. B14  1.17 nM

In order of rising cAMP Rel EC50 (in the presence of 1% HSA):
1. B3  61 nM
2. B12  77.1 nM
3. B1  77.4 nM
4. B5  91.4 nM
5. B11  154 nM

In order of falling cAMP Rel EC50 (1% HSA):
1. B8  95.8 nM
2. B13  44 nM
3. B4  38.2 nM
4. B10  38.1 nM
5. B7  37.7 nM
6. B9  37.4 nM
7. B2  33.2 nM
8. B14  1.15 nM
9. B6  1.06 nM

Molecular target: T1, human GIP receptor (human) (UniProt P48546)
T1 sequence (looked up): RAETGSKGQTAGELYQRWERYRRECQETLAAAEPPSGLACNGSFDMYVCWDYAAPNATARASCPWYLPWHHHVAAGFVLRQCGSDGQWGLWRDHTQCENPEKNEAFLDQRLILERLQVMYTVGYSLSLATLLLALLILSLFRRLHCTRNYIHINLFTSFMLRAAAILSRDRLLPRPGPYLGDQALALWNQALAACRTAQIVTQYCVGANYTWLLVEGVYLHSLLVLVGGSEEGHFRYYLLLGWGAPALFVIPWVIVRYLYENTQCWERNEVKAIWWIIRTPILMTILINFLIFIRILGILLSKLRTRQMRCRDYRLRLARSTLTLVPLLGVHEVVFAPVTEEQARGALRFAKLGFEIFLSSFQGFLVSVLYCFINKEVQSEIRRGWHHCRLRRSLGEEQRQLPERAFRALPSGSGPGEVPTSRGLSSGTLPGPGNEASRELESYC
Test: cell-based or functional assay

In order of rising Relative cAMP EC50:
1. B2  0.00592 nM
2. B3  0.00663 nM
3. B4  0.00702 nM
4. B10  0.00704 nM
5. B13  0.00721 nM
6. B7  0.00819 nM
7. B5  0.00883 nM
8. B1  0.0109 nM
9. B6  0.012 nM
10. B14  0.0135 nM
11. B8  0.052 nM
12. B11  0.0648 nM
13. B12  0.0914 nM
14. B9  0.21 nM

In order of rising cAMP Rel EC50 (in the presence of 1% HSA):
1. B3  0.67 nM
2. B5  0.896 nM
3. B1  0.954 nM
4. B12  7.02 nM
5. B11  7.11 nM

In order of falling cAMP Rel EC50 (1% HSA):
1. B9  15.8 nM
2. B8  11.9 nM
3. B10  0.635 nM
4. B13  0.616 nM
5. B4  0.614 nM
6. B7  0.565 nM
7. B2  0.489 nM
8. B14  0.011 nM
9. B6  0.00988 nM

Molecular target: human glucagon receptor (human) (UniProt P47871)
Sequence (P47871 26-477): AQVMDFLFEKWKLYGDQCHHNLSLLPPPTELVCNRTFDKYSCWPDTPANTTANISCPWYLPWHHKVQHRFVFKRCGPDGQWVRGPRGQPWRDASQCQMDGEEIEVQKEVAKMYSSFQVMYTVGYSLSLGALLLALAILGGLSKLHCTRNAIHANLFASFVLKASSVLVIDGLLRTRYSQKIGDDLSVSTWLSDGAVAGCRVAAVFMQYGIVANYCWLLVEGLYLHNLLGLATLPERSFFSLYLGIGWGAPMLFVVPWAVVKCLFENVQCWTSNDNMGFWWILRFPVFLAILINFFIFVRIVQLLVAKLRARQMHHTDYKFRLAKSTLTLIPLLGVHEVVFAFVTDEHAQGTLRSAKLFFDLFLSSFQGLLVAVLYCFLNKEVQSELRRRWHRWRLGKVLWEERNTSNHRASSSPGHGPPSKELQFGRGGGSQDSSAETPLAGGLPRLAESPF
Test: cell-based or functional assay

In order of falling Relative cAMP EC50:
1. B14  11.6 nM
2. B6  9.48 nM
3. B9  3.5 nM
4. B10  2.25 nM
5. B11  1.81 nM
6. B3  1.8 nM
7. B4  1.71 nM
8. B13  1.69 nM
9. B1  1.68 nM
10. B5  1.5 nM
11. B2  1.45 nM
12. B12  1.16 nM
13. B7  0.97 nM
14. B8  0.947 nM

In order of falling cAMP Rel EC50 (in the presence of 1% HSA):
1. B11  370 nM
2. B3  314 nM
3. B5  278 nM
4. B1  192 nM
5. B12  130 nM

In order of rising cAMP Rel EC50 (1% HSA):
1. B6  9.9 nM
2. B14  11.7 nM
3. B7  124 nM
4. B2  211 nM
5. B4  230 nM
6. B13  268 nM
7. B10  288 nM
8. B8  502 nM
9. B9  507 nM
